Data from patent US9523084B2, “Phosphodeoxyribosyl transferase mutant enzymes and uses thereof” (Centre National De La Recherche Scientifique, priority 2012, dated 2016).

What was measured:
[1] = biological target: T1, Lactobacillus leichmannii nucleoside deoxyribosyltransferase (NDT, SEQ ID NO:1) variant PDTT1, R13 G92 T93 S123 K157 (F13R/D92G/V93T/N123S/Y157K), SEQ ID NO:9 (Lactobacillus leichmannii, UniProt Q9R5V5, D92G/F13R/N123S/V93T/Y157K); test: Kinetic parameters of PDT variants with deoxycytidine 5'-mono, -di and -triphosphate as donors and adenine as acceptor; format: biochemical; conditions: adenine acceptor
T1 construct: homohexamer (108 kDa)
T1 sequence (Q9R5V5 1-157 F13R/D92G/V93T/N123S/Y157K): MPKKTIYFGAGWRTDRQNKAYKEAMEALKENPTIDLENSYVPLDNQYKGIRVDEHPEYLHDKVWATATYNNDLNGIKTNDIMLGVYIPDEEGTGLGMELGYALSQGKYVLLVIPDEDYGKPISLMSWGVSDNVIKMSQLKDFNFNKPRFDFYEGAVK
Procedure: (§1) The standard assay (“first protocol for enzyme assay”) for the different NDTs consisted of 5-15 μg of NDT in 50 mM MES buffer pH 6.0, dNxP (dNMP, or dNDP or dNTP) 3 mM and a base 1 mM in a total volume of 50 μL. Assays were incubated for 60 min at 37° C. The products of the reactions were analyzed each 7 min by Rapid resolution high performance liquid chromatography using a reverse-phase column (ZORBAX Eclipse XDB-C18 2.1*50 mm 1.8 μM) with a flow rate of 0.25 ml/min and a linear gradient of 1-12% CH3CN (2-25% CH3CN or 1-90% CH3CN) in 20 mM triethylammonium acetate, pH 7.5, buffer for 7 min. The low resolution mass spectra of the newly synthesized deoxyribonucleotides were obtained on an Agilent 1200 series LC/MS 6120 quadrupole system using an atmospheric electrospray ionization system.
(§2) This hypothesis was confirmed by monitoring the specific activity, in the presence of dCDP or dCTP as donor and adenine as acceptor (see table 2 above). The kinetic parameters were determined for the best variants with dCMP, dCDP and dCTP as substrates, at a concentration of A being fixed (see table 3 below).

[2] = biological target: T2, Lactobacillus leichmannii nucleoside deoxyribosyltransferase (NDT, SEQ ID NO:1) variant PDTT2, R13 Q91 G92 T93 S123 (F13R/E91Q/D92G/V93T/N123S), SEQ ID NO:10 (Lactobacillus leichmannii, UniProt Q9R5V5, D92G/E91Q/F13R/N123S/V93T); test: as above; format: biochemical; conditions: adenine acceptor
T2 construct: made in house; host or cells: E. coli BLi5 (pET24a NDT plasmid)
T2 sequence (Q9R5V5 2-157 F13R/E91Q/D92G/V93T/N123S): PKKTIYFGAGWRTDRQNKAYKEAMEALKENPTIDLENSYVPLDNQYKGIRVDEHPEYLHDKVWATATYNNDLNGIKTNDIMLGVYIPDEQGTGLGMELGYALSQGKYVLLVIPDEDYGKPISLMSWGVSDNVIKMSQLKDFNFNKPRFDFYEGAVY
Procedure: as §1, §2

[3] = substrate: Nc1ccn([C@H]2C[C@H](O)[C@@H](COP(=O)(O)O)O2)c(=O)n1; test: as above; format: biochemical; conditions: 37.0 °C; for Km: adenine as acceptor, fixed
Procedure: as §1, §2

[4] = substrate: Nc1ccn([C@H]2C[C@H](O)[C@@H](COP(=O)(O)OP(=O)(O)OP(=O)(O)O)O2)c(=O)n1; test: as above; format: biochemical; conditions: other: PDTT2; deoxyribose triphosphate transferase; 37.0 °C
Procedure: as §1, §2

[5] = substrate: Nc1ccn([C@H]2C[C@H](O)[C@@H](COP(=O)(O)O)O2)c(=O)n1; test: as above; format: biochemical, Lactobacillus leichmannii; conditions: 37.0 °C; for Km: adenine as acceptor, fixed
Procedure: as §1, §2

[6] = substrate: Nc1ncnc2c1ncn2[C@H]1C[C@H](O)[C@@H](COP(=O)(O)OP(=O)(O)OP(=O)(O)O)O1; test: Spectrophotometric assay coupled to xanthine oxidase, dATP + C ⇄ dCTP + A; format: biochemical; conditions: other: PDTT2, 1 mM cytosine, 50 mM MES pH6.0, 37° C., pH 6.0
Procedure: (§3) Further, the cinetic parameters of these mutant enzymes were analysed, using a specific spectrophotometric assay. Briefly, the assay consists in measuring the formation of the final product (2,8 dihydroxyadenine) of the reaction:
(§4) Briefly, the assay was performed using the coupling of two enzymes: the variant (PDTT2, PDTT4, PDTT5, PDTT6, or PDTT7) to be tested and xanthine oxidase (obtained from Roche). The reaction mixture contained varying concentrations of dATP, 1 mM cytosine in a 50 mM MES buffer pH6.0 at 37° C. The reaction was initiated by adding 30 units of the purified variant to be tested and xanthine oxidase (Roche). The released adenine was then oxidized in 2,8-dihydroxyadenine which absorbs at 301 nm. The formation (i.e. concentration) of 2,8 dihydroxyadenine was measured by spectrophotometry.

[7] = substrate: Nc1ncnc2c1ncn2[C@H]1C[C@H](O)[C@@H](COP(=O)(O)OP(=O)(O)OP(=O)(O)O)O1; test: as above; format: biochemical, Lactobacillus leichmannii; conditions: other: PDTT5, 1 mM cytosine, 50 mM MES pH6.0, 37° C., pH 6.0
Procedure: as §3, §4

[8] = Catalytic activity of PDTT2 to PDTT7, dATP formed (HPLC); format: biochemical; conditions: dCTP + A ⇄ dATP + C; 2 mM dCTP, 1 mM Adenine, 37° C., MES 50 mM pH6.0
Procedure: In specific cases, an alternative protocol was used to perform the enzyme assay. In this second protocol, the dNxP (dNMP, or dNDP or dNTP) concentration was of only 2 mM, instead of 3 mM. All of the other conditions were identical to those of the first protocol.
The catalytic activity of the mutant enzymes PDTT2, PDTT3, PDTT3b, PDTT4, PDTT5, PDTT6, PDTT7 has been compared. Briefly, a sufficient amount of enzyme mutant necessary to obtain a linear reaction over a period of one hour at 37° C. has been mixed in 2 mM dCTP and 1 mM Adenine in a final volume of 50 μL of MES buffer 50 mM pH6.0. Assays were incubated for 60 min at 37° C. The products of the reactions were analyzed each 7 min by Rapid resolution high performance liquid chromatography using a reverse-phase column (ZORBAX Eclipse XDB-C18 2.1*50 mm […]) with a flow rate of 0.25 ml/min and a linear gradient of 1-12% CH3CN (2-25% CH3CN or 1-90% CH3CN) in 20 mM triethylammonium acetate, pH 7.5, buffer for 7 min.

[9] = Spectrophotometric assay coupled to xanthine oxidase (2,8-dihydroxyadenine at 301 nm); format: biochemical; conditions: dATP + C ⇄ dCTP + A; 1 mM cytosine, 50 mM MES pH6.0, 37° C.
Procedure: as §3, §4

Molecule: Nc1ccn([C@H]2C[C@H](O)[C@@H](COP(=O)(O)O)O2)c(=O)n1 [dCMP]
- kcat ([1]; PDTT1, second line of the table): 0.08 s⁻¹
- kcat ([1]; PDTT1, third line of the table): 0.5 s⁻¹
- kcat ([2]; PDTT2, second line of the table): 0.1 s⁻¹
- kcat ([2]; PDTT2, third line of the table): 1.3 s⁻¹

B1: Lactobacillus leichmannii nucleoside deoxyribosyltransferase (NDT, SEQ ID NO:1) variant PDTT2, R13 Q91 G92 T93 S123 (F13R/E91Q/D92G/V93T/N123S), SEQ ID NO:10 … (protein)
chain: PKKTIYFGAGWRTDRQNKAYKEAMEALKENPTIDLENSYVPLDNQYKGIRVDEHPEYLHDKVWATATYNNDLNGIKTNDIMLGVYIPDEQGTGLGMELGYALSQGKYVLLVIPDEDYGKPISLMSWGVSDNVIKMSQLKDFNFNKPRFDFYEGAVY
notes: made in house; host or cells: E. coli BLi5 (pET24a NDT plasmid)
- kcat ([3]; other: PDTT2, first line, adenine acceptor, molecular mass of 108 kDa): 0.9 s⁻¹
- Km ([3]; other: PDTT2, first line): 6000 µM
- Km ([3]; other: PDTT2, second line of the table): 8700 µM
- Km ([3]; other: PDTT2, third line of the table): 2000 µM
- Km [4]: 2000 µM
- kcat/Km [4]: 668 M⁻¹ s⁻¹

B2: Lactobacillus leichmannii nucleoside deoxyribosyltransferase (NDT, SEQ ID NO:1) variant PDTT1, R13 G92 T93 S123 K157 (F13R/D92G/V93T/N123S/Y157K), SEQ ID NO:9 … (protein)
chain: MPKKTIYFGAGWRTDRQNKAYKEAMEALKENPTIDLENSYVPLDNQYKGIRVDEHPEYLHDKVWATATYNNDLNGIKTNDIMLGVYIPDEEGTGLGMELGYALSQGKYVLLVIPDEDYGKPISLMSWGVSDNVIKMSQLKDFNFNKPRFDFYEGAVK
notes: homohexamer (108 kDa)
- kcat ([5]; other: PDTT1, first line, adenine acceptor, molecular mass of 108 kDa): 0.46 s⁻¹
- Km ([5]; other: PDTT1, first line): 4100 µM
- Km ([5]; other: PDTT1, second line of the table): 8900 µM
- Km ([5]; other: PDTT1, third line of the table): 5500 µM

B3: Lactobacillus leichmannii nucleoside deoxyribosyltransferase (NDT, SEQ ID NO:1) variant PDTT2, R13 Q91 G92 T93 S123 (F13R/E91Q/D92G/V93T/N123S), SEQ ID NO:10 … (protein)
chain: MPKKTIYFGAGWRTDRQNKAYKEAMEALKENPTIDLENSYVPLDNQYKGIRVDEHPEYLHDKVWATATYNNDLNGIKTNDIMLGVYIPDEQGTGLGMELGYALSQGKYVLLVIPDEDYGKPISLMSWGVSDNVIKMSQLKDFNFNKPRFDFYEGAVY
notes: as for B1
- Km [6]: 6100 µM
- kcat [6]: 12.6 s⁻¹
- kcat/Km [6]: 2000 M⁻¹ s⁻¹

B4: Lactobacillus leichmannii nucleoside deoxyribosyltransferase (NDT, SEQ ID NO:1) variant PDTT5, R13 Q91 G92 P93 S123 R157 (F13R/E91Q/D92G/V93P/N123S/Y157R), SEQ … (protein)
chain: MPKKTIYFGAGWRTDRQNKAYKEAMEALKENPTIDLENSYVPLDNQYKGIRVDEHPEYLHDKVWATATYNNDLNGIKTNDIMLGVYIPDEQGPGLGMELGYALSQGKYVLLVIPDEDYGKPISLMSWGVSDNVIKMSQLKDFNFNKPRFDFYEGAVR
notes: xanthine oxidase is coupling enzyme only
- Km [7]: 200 µM
- kcat [7]: 8.78 s⁻¹
- kcat/Km [7]: 42800 M⁻¹ s⁻¹

B5: PDTT7: PDTT3b mutant with Arginine at position 157, SEQ ID NO:42 (protein)
chain: MPKKTIYFGAGWRTDRQNKAYKEAMEALKENPTIDLENSYVPLDNQYKGIRVDEHPEYLHDKVWATATYNNDLNGIKTNDIMLGVYIPDEQGGGLGMELGYALSQGKYVLLVIPDEDYGKPISLMSWGVSDNVIKMSQLKDFNFNKPRFDFYEGAVR
modifications: amino acid sequence of PDTT7 (G92/S123/R13/G93/R157/Q91)
- Catalytic activity (nmol of dATP formed/min/mg of enzyme protein) [8]: 17.9 nmol of dATP formed/min/mg of enzyme protein
- Km [9]: 2600 µM
- kcat [9]: 10 s⁻¹

B6: PDTT6: PDTT4 mutant with Arginine at position 157, SEQ ID NO:43 (protein)
chain: MPKKTIYFGAGWRTDRQNKAYKEAMEALKENPTIDLENSYVPLDNQYKGIRVDEHPEYLHDKVWATATYNNDLNGIKTNDIMLGVYIPDEQGSGLGMELGYALSQGKYVLLVIPDEDYGKPISLMSWGVSDNVIKMSQLKDFNFNKPRFDFYEGAVR
modifications: amino acid sequence of PDTT6 (G92/S123/R13/S93/R157/Q91)
- Catalytic activity (nmol of dATP formed/min/mg of enzyme protein) [8]: 18.6 nmol of dATP formed/min/mg of enzyme protein
- Km [9]: 500 µM
- kcat [9]: 10 s⁻¹
